Biological target: T1, CD93 (Homo sapiens, UniProt Q9NPY3)
T1 construct: expressed in transfected cells; host or cells: 293 cells (CD93+ 293)
T1 sequence (Q9NPY3 22-652): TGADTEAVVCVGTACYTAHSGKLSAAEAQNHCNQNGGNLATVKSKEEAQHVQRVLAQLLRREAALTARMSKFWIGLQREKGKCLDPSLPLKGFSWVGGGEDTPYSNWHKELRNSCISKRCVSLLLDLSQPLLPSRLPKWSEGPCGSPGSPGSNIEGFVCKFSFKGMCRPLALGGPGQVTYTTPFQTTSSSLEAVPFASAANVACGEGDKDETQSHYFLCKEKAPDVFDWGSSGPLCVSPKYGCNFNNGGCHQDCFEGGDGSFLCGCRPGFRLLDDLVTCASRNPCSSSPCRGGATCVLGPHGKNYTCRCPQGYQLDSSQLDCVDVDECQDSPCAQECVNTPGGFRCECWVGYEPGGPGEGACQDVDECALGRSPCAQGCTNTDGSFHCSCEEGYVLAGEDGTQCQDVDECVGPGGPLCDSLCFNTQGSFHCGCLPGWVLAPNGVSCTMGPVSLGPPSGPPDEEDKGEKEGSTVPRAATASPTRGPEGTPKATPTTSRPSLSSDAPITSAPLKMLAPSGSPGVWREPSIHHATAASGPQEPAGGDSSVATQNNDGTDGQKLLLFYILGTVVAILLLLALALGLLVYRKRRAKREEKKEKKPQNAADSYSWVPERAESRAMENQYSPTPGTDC
Experiment: binding of Ig fusion proteins to CD93 transfectant (flow cytometry)
Conditions: flow cytometry
From the text: FIGS. 10A-10B show identification of the binding domain on IGFBP7 for CD93. Each extracellular domain for IGFBP7, including insulin binding (IB). Kazal, and Ig, was swapped with the corresponding domain on IGFBPL1 using PCR cloning and fused to a C-terminal Ig. These chimeric mutants were transiently expressed in HEK293T cells and supernatants were used to stain CD93 transfectant. FIG. 10A depicts whether multiple chimeric IGFBP7 mutants bind to CD93. FIG. 10B depicts various human genes containing IB-domain constructed onto an expression vector containing Fc-Tag. Constructs were transiently transduced into HEK293T cells to produce Fc tagged fusion proteins in the supernatant. Supernatant was used to stain CD93 transfectant by flow cytometry. Binding index represents the ratio of binding MFI of CD93 transfectant to control cells.
The IGFBP7-IGFBPL1 chimeras were generated by two-step PCR. […]
Cell surface and intercellular staining and analysis by flow cytometry were followed the protocol previously described (71). Dead cells were excluded with SYTOX® (Blue Dead Cell Stain Kit (Thermo Fisher Scientific). Flow cytometric analysis was conducted with a BD FACS Calibur or a BD LSRFortessa™ cell analyzer (BD Bioscience, Franklin Lakes, N.J. USA), and then data were analyzed by FlowJo software (Tree Star Inc.)

B1: IGFBPL1: a IGFBP-related protein that does not bind CD93 (protein, UniProt Q8WX77 26-278, looked up)
Insulin-like growth …: LGIRDVGGRRPKCGPCRPEGCPAPAPCPAPGISALDECGCCARCLGAEGASCGGRAGGRCGPGLVCASQAAGAAPEGTGLCVCAQRGTVCGSDGRSYPSVCALRLRARHTPRAHPGHLHKARDGPCEFAPVVVVPPRSVHNVTGAQVGLSCEVRAVPTPVITWRKVTKSPEGTQALEELPGDHVNIAVQVRGGPSDHEATAWILINPLRKEDEGVYQCHAANMVGEAESHSTVTVLDLSKYRSFHFPAPDDRM
- binding to CD93 293 cells / CD93 transfectant: does not bind

From patent US20220235136A1, “METHODS AND COMPOSITIONS FOR TREATING A DISEASE OR DISORDER” (YALE UNIVERSITY, priority 2019, published 2022)
